B1: soluble VCAM-1/IgG1 fusion protein (seven extracellular immunoglobulin-like domains) (Fc fusion, UniProt P19320 25-698, looked up, not shown: a dimerising Fc or GST)
chain: FKIETTPESRYLAQIGDSVSLTCSTTGCESPFFSWRTQIDSPLNGKVTNEGTTSTLTMNPVSFGNEHSYLCTATCESRKLEKGIQVEIYSFPKDPEIHLSGPLEAGKPITVKCSVADVYPFDRLEIDLLKGDHLMKSQEFLEDADRKSLETKSLEVTFTPVIEDIGKVLVCRAKLHIDEMDSVPTVRQAVKELQVYISPKNTVISVNPSTKLQEGGSVTMTCSSEGLPAPEIFWSKKLDNGNLQHLSGNATLTLIAMRMEDSGIYVCEGVNLIGKNRKEVELIVQEKPFTVEISPGPRIAAQIGDSVMLTCSVMGCESPSFSWRTQIDSPLSGKVRSEGTNSTLTLSPVSFENEHSYLCTVTCGHKKLEKGIQVELYSFPRDPEIEMSGGLVNGSSVTVSCKVPSVYPLDRLEIELLKGETILENIEFLEDTDMKSLENKSLEMTFIPTIEDTGKALVCQAKLHIDDMEFEPKQRQSTQTLYVNVAPRDTTVLVSPSSILEEGSSVNMTCLSQGFPAPKILWSRQLPNGELQPLSENATLTLISTKMEDSGVYLCEGINQAGRSRKEVELIIQVTPKDIKLTAFPSESVKEGDTVIISCTCGNVPETWIILKKKAETGDTVLKSIDGAYTIRKAQLKDAGVYECESKNKVGSQLRSLTLDVQGRENNKDYFSPE
B2: ICAM-2/Ig (Fc fusion, part only; not given: Ig portion, UniProt P13598 25-223, looked up, part only)
chain, part: KVFEVHVRPKKLAVEPKGSLEVNCSTTCNQPEVGGLETSLDKILLDEQAQWKHYLVSNISHDTVLQCHFTCSGKQESMNSNVSVYQPPRQVILTLQPTLVAVGKSFTIECRVPTVEPLDSLTLFLFRGNETLHYETFGKAAPAPQEATATFNSTADREDGHRNFSCLAVLDLMSRGGNIFHKHSAPKMLEIYEPVSDSQ

How the values were obtained:
[1] = target: soluble human αd/CD18 leucine zipper heterodimer (human) (UniProt P05107); assay: ELISA, CAM/Ig on αd/CD18LZ captured with 212D
[2] = target: LFA-1 leucine zipper fusion protein (soluble CD11a/CD18) (UniProt P20701); assay: ELISA, CAM/Ig on captured soluble CD11a/CD18

Row | Binder | fold increase in signal above background [1] | fold above background [2]
1 | B1 | 5 fold | –
2 | B2 | – | 10 fold

Reference: patent publication US20020062008A1
